Numbering of substitutions follows the chain as printed. Names may count otherwise. Values belong to the molecule of their own block, whether it stands above or below them.
Columns and labels:
LRP2 CR34-36 = target: T1, LRP2 CR34-36 (Homo sapiens, UniProt P98164); experiment: Solid phase binding assay; settings: highest ligand concentrations tested
T1 construct: a CR triplet from LRP2 (CR34-36); made in house; host or cells: E. coli BL21(DE3) CodonPlus-RIPL, pET30(+)a
Description: (§1) All expression constructs were sequenced to verify insert sequences and the junctions with the expression vector. Each plasmid was then used to transform BL21(DE3) CodonPlus-RIPL™ cells (Stratagene). Expression of the CR proteins was induced in logarithmic growth-phase cells grown in LB supplemented with 34 μg/mL chloramphenicol, 12.5 μg/mL tetracycline and 15 μg/mL kanamycin by addition of 2 mM IPTG, followed by reduction in incubator temperature to 32° C. and incubation for 4 hours with agitation at […]. Cells were pelleted and resuspended, at 3.5% of the initial culture volume in 10 mM Tris-HCl pH 8, 100 mM NaH2PO4, 8M Urea. Resuspended cells were then frozen in liquid nitrogen, rapidly thawed to 37° C. and sonicated for 10 seconds at an amplitude setting of 60 using a Cole-Parmer CP-130 ultrasonic processor connected to a 3 mm probe. This procedure was repeated three times to effect complete lysis of the cells. Lysates were clarified by spinning twice at 10,000×g in a Sorvall RC-5 centrifuge for 20 minutes at 15° C. Ni-NTA columns (Qiagen Superflow™, 1.5 mL packed bed) were used to purify the CR proteins. Briefly, the resin was equilibrated with two column volumes of lysis buffer. The clarified lysate was then supplemented to 20 mM with imidazole and incubated with the equilibrated Ni-NTA resin overnight at 4° C. The flow-through was discarded. Columns were washed once with one column volume of lysis buffer and then three times with one column volume of TBS pH 8 supplemented with 20 mM imidazole. CR-loaded beads were then removed from the column and CR proteins eluted by incubating at room temperature for 30 minutes with one column volume of the same buffer containing 200 mM imidazole. This step was repeated once and the eluates pooled. Eluted CR protein solutions were then supplemented to 2 M urea, 10 mM CaCl2 and 5 mM DTT. Purified, denatured CR protein solutions were transferred to 3,500 MWCO Slide-A-Lyzer™ (Pierce) cassettes and sequentially dialyzed against a 200-fold excess of 50 mM Tris-HCl pH 8.5, 10 mM CaCl2, 1 mM reduced glutathione, 0.5 mM oxidized glutathione at room temperature overnight and then against TBS supplemented with 5 mM CaCl2 at 4° C. overnight. Protein concentrations were determined by Bradford assay and purity confirmed by SDS-PAGE with Coomassie Brilliant Blue staining.
(§2) Purified, refolded CR protein (1 μg) was bound to Nunc Maxisorp™ 96-well plates in TBS pH 8 supplemented with 5 mM CaCl2 (TBSC) overnight at 4° C. Wells were washed with TBSC and then blocked with TBSC containing 2% bovine serum albumin (BSA). RAP ligands were then incubated with the immobilized receptor at a range of concentrations for 2 hours in the above blocking buffer supplemented with 0.05% Tween-20 at room temperature. Control wells contained no added ligand. As an additional control, to determine whether the absence of calcium affected binding, 10 mM EGTA was included in the incubation medium for some samples. Wells were washed with TBSTC and bound ligands detected with polyclonal anti-RAP (BP41/42, 1:1,000, BioMarin). Excess primary antibody was removed and wells washed before incubation with the secondary antibody, HRP-conjugated goat anti rabbit IgG (Bio-Rad). After washing, TMB substrate solutions (Bio-Rad) were added to detect HRP. Color development was stopped with 1N HCl. Absorption at 450 nm was measured with a microplate spectrophotometer (Molecular Devices). Data were plotted and Kd values derived by non-linear regression with the assumption of single-site binding (GraphPad Prism).

LRP2 CR3536 = target: T2, LRP2 CR3536 (Homo sapiens, UniProt P98164); experiment: Solid phase binding assay; settings: highest ligand concentrations tested
T2 construct: VLDLR CR78, LRP2 CR3536, LRP2 CR34-36 and MAT CR23; made in house; host or cells: E. coli BL21(DE3) CodonPlus-RIPL, pET30(+)a
Description: as §1, §2

CR proteins = experiment: Solid phase binding assay in presence of 10 mM EGTA; parameters: species or system human
Description: as §2
Next, the binding of RAP d3 and MegaRAP1 d3 proteins to LRP1 CR3-5 and LRP2 CR89 was assessed. […]

T1 sequence (P98164 3838-3974 limits assumed): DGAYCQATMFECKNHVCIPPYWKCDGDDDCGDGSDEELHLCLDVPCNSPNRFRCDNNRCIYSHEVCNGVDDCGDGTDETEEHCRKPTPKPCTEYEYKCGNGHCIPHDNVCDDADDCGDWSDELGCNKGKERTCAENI
T2 sequence (P98164 3880-3974 limits assumed): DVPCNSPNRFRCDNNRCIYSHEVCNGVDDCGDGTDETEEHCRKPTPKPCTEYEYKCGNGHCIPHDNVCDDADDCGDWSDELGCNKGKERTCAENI

- binding relative to that for LRP1 CR3-5 (LRP2 CR34-36): less than 5%
- binding relative to that for LRP1 CR3-5 (LRP2 CR3536): less than 5%
- effect of 10 mM EGTA on binding to CR proteins (CR proteins): prevented binding
B1: RAP d3: third domain of human RAP, amino acids 201-319 of mature RAP, bacterially expressed with hexahistidine and S-peptide tags (SEQ ID NO: 92) (protein, listed as Homo sapiens)
chain: LDRLRRVSHQGYSTEAEFEEPRVIDLWDLEQSANLTDKELEAFREELKHFEAKIEKHNHYQKQLEIAHEKLRHAESVGDGERVSRSREKHALLEGRTKELGYTVKKHLQDLSGRISRAR
modifications: hexahistidine and S-peptide tags

- effect of 10 mM EGTA on binding to CR proteins (CR proteins): prevented binding
B2: MegaRAP1 d3: d3 of RAP variant selected on LRP2 CR89: S213T, E217K, H249Y, E251K, K256A, K270E (SEQ ID NO: 93) (protein, listed as Homo sapiens)
chain: B1 chain with E51K, K56A, K70D

— patent US8440629B2, “Cyclic receptor-associated protein (RAP) peptides” (Raptor Pharmaceuticals Inc., priority 2007, dated 2013)
